How the values were obtained:
CB platelets = test: TRAP-induced platelet activation (CD62P expression); format: cell-based, human; details: after TRAP stimulation, vs without inhibitor
Excerpt: (§1) FIGS. 4A-4E. Rock inhibitor treatment enhance platelets secretion and TRAP induced activation. (FIG. 4A) Schematic representation of the strategy for the in-vitro megakaryocytes culture with or without rock inhibitor(Y27632) for 48 hrs. (FIG. 4B) Number of platelets after 48 hrs, number above bar indicates p-value. […] This indicates enhancement of functional profile of the CB platelets (FIGS. 4D-4E). Several different ROCK inhibitors can be used in this procedure including Y27632, KD025, GSK269962 and Azaindole 1([9-12].

CB megakaryocytes [1] = test: Platelet secretion from megakaryocytes cultured in vitro with or without ROCK inhibitor; format: cell-based, human; details: 48 hrs culture, vs without inhibitor; dose-dependent
Excerpt: as §1

CB megakaryocytes [2] = test: Megakaryocyte polyploidy by propidium iodide staining after ROCK inhibitor treatment; format: cell-based, human; details: treatment of mature megakaryocytes over 5 days, vs untreated
Excerpt: FIGS. 3A-3C. Rock inhibitor(Y27632) treatment increases megakaryocyte polyploidy. (FIG. 3A) Schematic representation of the strategy for the rock inhibitor treatment of mature megakaryocytes over 5 days. (FIG. 3B) Histogram plots showing propidium Iodide (PI) staining in fixed and permeabilized untreated or Y27632 treated megakaryocytes. (FIG. 3C) Percentage of polyploid (=>8N) megakaryocytes in untreated or Y27632 treated groups, number above bar indicates p-value.
The inventors characterized the influence of ROCK inhibitors on CB megakaryocyte ploidy changes, platelets secretions, and their functionality.
This indicates enhancement of functional profile of the CB platelets (FIGS. 4D-4E). Several different ROCK inhibitors can be used in this procedure including Y27632, KD025, GSK269962 and Azaindole 1([9-12].

recipient patients = details: ex vivo treatment of CB CD34+ progenitors with FT-VI plus GDP-fucose; cited from earlier work
[3] = system: megakaryocyte erythroid progenitors (MEPs); test: Cell surface fucosylation by flow cytometry HECA-452 antibody staining; format: cell-based, human; details: FT-VI 0.025 μg/ml plus GDP-fucose, 37° C., 30 min, vs control
Excerpt: (§2) FIGS. 7A-7G. FIG. 7A. […] (FIG. 7C) HECA-452 antibody mean fluorescence intensity (MFI) histogram expression in control and fucosylated megakaryocytes (CD41a+CD42b+CD61+ cells). (FIGS. 7D-7E) Schematic representation of CB megakaryocytes injection into NSG mice, BM homing analysis and the percentage of homed megakaryocytes in control and fucosylated megakaryocytes group. (FIGS. 7F-7G) CB megakaryocyte injection strategy into sublethally irradiated(3Gy) NSG mice and day 7 blood circulating CB derived platelets percentages measurement in the control and fucosylated groups.
(§3) To characterize the fucosylation levels at steady state, the inventors performed flow cytometry HECA-452 antibody staining (which recognizes sLex/cutaneous lymphocyte antigen (CLA), the fucosylated selectin ligand) to measure the levels of cell surface fucosylation in the freshly isolated CB derived hematopoietic stem cells(HSCs, lineage-CD34+CD38-CD90+CD45RA− cells), megakaryocytes lineage committed, megakaryocyte erythroid progenitors (MEPs, lineage-CD34+CD38+CD135−CD45RA−), and differentiated megakaryocytes(CD41a+CD42b+ cells). […] The NSG bone marrow homing experiments determine if the CB MK's surface fucosylation modification influences their homing into the irradiated mice marrow niche. Briefly, 5×10^6 fluorescein succinimidyl ester (CFSE) dye labeled, unmanipulated control or in-vitro fucosyltransferase-VI (FT-VI) induced fucosylated, expanded CB megakaryocytes were injected into sub-lethally (3Gy) irradiated NSG mice and bone marrow homing analysis at 20 h posttransplant was performed by flow cytometry. […] Similarly, another megakaryocytes tail vein transplantation (5×10^6/mice) experiment was performed, and initial percentage circulating platelets levels were measured from the control and fucosylated MK recipient groups. […]

[4] = system: megakaryocytes (CD41a+CD42b+ cells); test: as above; format: cell-based, human; details: FT-VI 0.025 μg/ml plus GDP-fucose, 37° C., 30 min, vs control
Excerpt: as §2, §3

[5] = system: CB derived hematopoietic stem cells (HSCs); test: as above; format: cell-based, human; details: FT-VI 0.025 μg/ml plus GDP-fucose, 37° C., 30 min, vs control
Excerpt: as §2, §3

C[C@@H](N)[C@H]1CC[C@H](C(=O)Nc2ccncc2)CC1 [Y27632]
TRAP induced platelet activation (CD62P expression) (CB platelets): enhance
platelets secretion (number of platelets) (CB megakaryocytes [1]): enhance
megakaryocyte polyploidy (polyploid =>8N megakaryocytes) (CB megakaryocytes [2]): increases

B1: α1,3-fucosyltransferase (protein, UniProt P51993 1-359, looked up)
4-galactosyl-N-acetylglucosami …: MDPLGPAKPQWSWRCCLTTLLFQLLMAVCFFSYLRVSQDDPTVYPNGSRFPDSTGTPAHSIPLILLWTWPFNKPIALPRCSEMVPGTADCNITADRKVYPQADAVIVHHREVMYNPSAQLPRSPRRQGQRWIWFSMESPSHCWQLKAMDGYFNLTMSYRSDSDIFTPYGWLEPWSGQPAHPPLNLSAKTELVAWAVSNWGPNSARVRYYQSLQAHLKVDVYGRSHKPLPQGTMMETLSRYKFYLAFENSLHPDYITEKLWRNALEAWAVPVVLGPSRSNYERFLPPDAFIHVDDFQSPKDLARYLQELDKDHARYLSYFRWRETLRPRSFSWALAFCKACWKLQEESRYQTRGIAAWFT
notes: fucosyl-transferase enzyme used with GDP-fucose for ex vivo fucosylation of cells
neutropenia and thrombocytopenia duration in recipient patients (recipient patients): significantly reduce
fucosylation levels (HECA-452 MFI) in MEPs [3]: significantly increased
fucosylation levels (HECA-452 MFI) in megakaryocytes [4]: significantly increased
fucosylation levels (HECA-452 MFI) in HSCs [5]: significantly increased

Source: patent publication US20230383257A1, “PRODUCTION OF MEGAKARYOCYTES AND PLATELETS IN A CO-CULTURE SYSTEM” (BOARD OF REGENTS, THE UNIVERSITY OF TEXAS SYSTEM, priority 2020, published 2023)
